Test results taken from the supplement of paper PMC9170038.

Tested on: MS2 coat protein
Assay: apparent KD of MS2 coat protein; designed switch direction (-1 OFF switch, 1 ON switch): -1; higher = weaker reporter binding
In short: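 For each design, the apparent KD is the median over clusters of curves fitted to normalised cluster fluorescence. Clusters held RNA switches with common flanks, transcribed on Illumina chips by stalled E. coli RNA polymerase. These were titrated with SNAP-549-labelled MS2 coat protein, doubling from 0.7 or 1.5 nM to 3 µM, without input, with 200 uM small-molecule ligand, or with an oligonucleotide input.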

[1] = Eterna round: R95, input ligand: FMN 200 uM
[2] = Eterna round: R95, input ligand: microRNA oligo, concentration not stated
[3] = Eterna round: R95, input ligand: none
[4] = input ligand: microRNA oligo, concentration not stated

Row | Sequence | apparent KD of MS2 coat protein (input ligand: FMN 200 uM) [nM] | apparent KD of MS2 coat protein (input ligand: none) [nM] | further results
1 | GAGGCAUGCCGAGGUCCACACAUGAGGAUCACCCAUGUAAUGACAGGCUUUUUACUCGUUUUACCGCUAUCGCGUUC [Gedied] (puzzle: Sensor v3, turn-off variant 1) |  |  | apparent KD of MS2 coat protein [1]: 14.9 nM; apparent KD of MS2 coat protein [2]: 21.7 nM; apparent KD of MS2 coat protein [3]: 12.7 nM
2 | GUACGCUCAGGAUAUCAAGGGCUGUACAUGAGGAUCACCCAUGUUAUCUUGGUGUCAGCGUGAGAAGGGAGGGAAA [Xesoonesa] (puzzle: Exclusion 5) |  |  | apparent KD of MS2 coat protein [2]: 20.6 nM
3 | UCUGCCGCCGUGAGGAUAUGCCCGAAAAAACGCGGGCAGAAGGCACAUGAGGAUCACCCAUGUCCCGCGGUUUU [salish99_bmx4_r4_136] (Eterna round: R97, puzzle: Brourd's mod of Exclusion 4) | 31 | 15.8 | 
4 | AAUUAUUGAUGAGGAUAUUGUGGUGAAACACGACGAGAAGGCAUAUGUCACAUGAGGAUCACCCAUGUGAGCCUUGUGCAUAUA [Ex NG1 #64] (Eterna round: R96, puzzle: Exclusion NG 1) |  |  | apparent KD of MS2 coat protein [4]: 15.8 nM
5 | AGUACUAACACGAAAGUGUUAGUACAAUAAGCUUGUAGAACAUGAGGAUCACCCAUGUCCUCAUAAGCUCGUCUUAU [Mat - Sensor v3 - Turn-off var 2 - D48] (puzzle: Sensor v3, turn-off variant 2) |  |  | apparent KD of MS2 coat protein [1]: 52.1 nM; apparent KD of MS2 coat protein [2]: 442 nM; apparent KD of MS2 coat protein [3]: 53.5 nM
6 | GGCGAAGUAGGAUAUACAUGAGGAUCACCCAUGUAACCAGAUGGCGUAGGUCUUCUAUGUAGAAGGGCUACGCC [jl-ex3-4.34 ViennaUCT mod] (Eterna round: R97, puzzle: Exclusion 3) | 16.9 | 17 | 
7 | GGAGGAGGAGUGAGGAUAUGGUGGUGGAAACACCACCAGAAGGCACAUGAGGAUCACCCAUGUGAUGUAGAGAA [AK-MS2ROC-r4-Bmoexclusion4-16] (Eterna round: R97, puzzle: Brourd's mod of Exclusion 4) | 27.4 | 16 | 
8 | CUGUACUGAGGAUAUACAUGAGGAUCACCCAUGUGAUUUAGUGCACGCGUACGUGUACGUAGAAGGCAGUACAG [Mat - Exclusion 3 - Eli Mod - D36] (Eterna round: R97, puzzle: Exclusion 3) | 183 | 25.2 | 
9 | ACAUGUUAUGUAGGAUAUUGGACACAUGAGGAUCACCCAUGUACCCGGAGGCUUUACUAUGAGUUCGAGAAGGGUAUGUACAUG [Ex NG2 #69] (Eterna round: R96, puzzle: Exclusion NG 2) | 35.3 | 47.1 | apparent KD of MS2 coat protein [4]: 33.7 nM
10 | CAUGUGUGAGGAUAUCCUAGACUAAUGGAGACGCUACCGUGGGAGAAGGUACAUGAGGAUCACCCAUGUGGACC [Eternabot (L1) Solution 88] (Eterna round: R97, puzzle: Exclusion 4) | 32.7 | 32.2 | 
11 | CUUUUCAGAGGAUAUAGAUAUUAUCACAUGAGGAUCACCCAUGUAACCCUACAUUCACCACUAGAAGGCUGUUAAG [lam1] (Eterna round: R97, puzzle: Exclusion 5) | 27.1 | 48.5 | 
12 | CCGGGCCCGGGAGGAUAUACAUGAGGAUCACCCAUGUGGGCCCGGGCCCGCGGGCCCGGGCCCGUGUAGAAGGCCCGGGCCCGG [-64.8, -63.2 kcal, A 14%] (Eterna round: R96, puzzle: Exclusion NG 2) | 27.2 | 19.9 | apparent KD of MS2 coat protein [4]: 5.13 nM
13 | GUCAGCUCGUCAGGAUAUACAUGAUAGAUCGAUUAAUUAAUUAAUUUAACAUGAGGAUCACCCAUGUAGAAGGGACGAGCUGAC [ENG2/1-B1] (Eterna round: R96, puzzle: Exclusion NG 2) |  |  | apparent KD of MS2 coat protein [4]: 39.8 nM
14 | UACCUAAUGGGUGUUUCUCACAUGAGGAUCACCCAUGUCACUAGCUUUUUGCUCAUCUUAUCGAAACACCCUUAGUC [Birerage] (puzzle: Sensor v3, turn-off variant 1) |  |  | apparent KD of MS2 coat protein [1]: 21.3 nM; apparent KD of MS2 coat protein [2]: 10.2 nM; apparent KD of MS2 coat protein [3]: 20.8 nM
15 | UCGGCGCGAGGAUAUACGUUUGCUUUUUAGGAUCGUUGCGUACAUGAGGAUCACCCAUGUAGAAGGCGCGCCGC [Apr-15 SS2-27] (puzzle: Exclusion 2) |  |  | apparent KD of MS2 coat protein [2]: 12.4 nM
16 | AUGGGUCCUCUCGGAGCUACAUGAGGAUCACCCAUGUGUAUUGAGGAUAUCCACUGCUCAGGACGGGAGAAGGCAGUGUACUGU [Ex NG3 #87] (Eterna round: R96, puzzle: Exclusion NG 3) | 51.4 | 58.4 | apparent KD of MS2 coat protein [4]: 46.3 nM
17 | UUAAUUAAUAAUUAAGAUCAUUACAUGAGGAUCACCCAUGUCGAGGAUAUCAGCUCGUGUAGAGCUGAGAAGGCGACAAAUUAU [ExNG3/13-B3] (Eterna round: R96, puzzle: Exclusion NG 3) | 586 | 633 | apparent KD of MS2 coat protein [4]: 268 nM
18 | GCCGGAUUUGUGAGGAUAUACCUAUGGAUACAUAGGUAGAAGGCACAUGAGGAUCACCCAUGUACCUCUCCGGC [JL-BMX4-4.19 Eli mod] (Eterna round: R97, puzzle: Brourd's mod of Exclusion 4) | 91.9 | 19.5 | 

Row | Sequence | apparent KD of MS2 coat protein (input ligand: FMN 200 uM) [nM] | apparent KD of MS2 coat protein (input ligand: none) [nM] | further results
19 | UAUUAGUGAGGAUAUGGUAAAGAUAAGAUGAUGAAAGAACUCCAGAAGGCACAUGAGGAUCACCCAUGUAGUAG [JL-ex4-2.09 Jieux mod] (puzzle: Exclusion 4) |  |  | apparent KD of MS2 coat protein [2]: 19.5 nM
20 | AGUACUGACACGUUGGUGUUAGUACCAUAAGCUUGUGAUACAUGAGGAUCACCCAUGUCCUCAUAAGCUCGUCUUAU [salish99_TOv2_r2_096] (puzzle: Sensor v3, turn-off variant 2) |  |  | apparent KD of MS2 coat protein [1]: 27.4 nM; apparent KD of MS2 coat protein [2]: 484 nM; apparent KD of MS2 coat protein [3]: 26 nM
21 | AAUUAUUUUUGAGGAUAUCGUGGUGAAACACCACGAGAAGGCGAGAUACACAUGAGGAUCACCCAUGUGAGCCUGAUGCUUAUG [Ex NG1 #51] (Eterna round: R96, puzzle: Exclusion NG 1) |  |  | apparent KD of MS2 coat protein [4]: 11.5 nM
22 | AGCUAGUCAGUAGGAUAUGUAGGAUAUGUGGUUGAGGUUCACCCAACCACAUCAACGACAGAAGGACAGAAGGACUGGUUAGCA [pwkr exNG2 2xFMN 1xF5.5] (Eterna round: R96, puzzle: Exclusion NG 2) | 2320 | 2810 | apparent KD of MS2 coat protein [4]: 1210 nM
23 | CCGUUGCUAGGAUAUACAUGAGGAUCACCCAUGUUUGAUCCAGCGAGUCAAUCCGCUUGUAGAAGGAGUUACAC [EX3 C.9] (Eterna round: R97, puzzle: Exclusion 3) | 25.3 | 26.4 | 
24 | UGAUUGUUUACCAGGUUAUACAUGAGGAUCACCCAUGUAGAUCCUACGUGCGCGUUGUUCCGCUCGUCUUAUUGCCA [Sensor-V1 #80] (Eterna round: R97, puzzle: Sensor, turn-off variant 1) | 22.6 | 24.8 | 
25 | CCUCAUAGUCAGGAUAUCAGCGCGUUCGGCAAAUGAGAAGGGACCACAUGAGGAUCACCCAUGUAAAACCAAAA [Beencema] (Eterna round: R97, puzzle: Exclusion 6) | 44.1 | 36 | 
26 | UUUAAACAUGAGGAUCACCCAUGUUAGGAUAUACGAAUGCAGACACACACGGAUGCAAGUAGAAGGAACCAUGC [Design #8] (Eterna round: R97, puzzle: Exclusion 1) | 44.1 | 44.1 | 
27 | GACCGUGCUUAGGAUAUACGUUAGGAGUUGACCGUAGAAGGGAGUACAUGAGGAUCACCCAUGUCACCUACAGC [Eternabot (L2) Solution 75] (Eterna round: R97, puzzle: Exclusion 6) | 15.9 | 16.5 | 
28 | UUUUAACAUGAGGAUCACCCAUGUGAGGAUAUCGAAAUUUAUAUUAAUAUUAUUAUAACGAGAAGGCACAUUUU [JMF 39] (puzzle: Exclusion 1) |  |  | apparent KD of MS2 coat protein [2]: 62.2 nM
29 | AAAUAGCUUGAGGAUAUUGGAUAGGAUUUAGUGCGAGAAGGCAAGACAUGAGGAUCACCCAUGUUGUGUUGGGA [EX6 #13] (Eterna round: R97, puzzle: Exclusion 6) | 48.4 | 36.4 | 
30 | ACAUGAGGAUCACCCAUGUCAGGCGGGUCCUCUCCGGCUGUUGAGGAUAUAGUCCGGUAUCCGCGCUAGAAGGUGAGGGCCGGC [Aenatbe mod 18] (Eterna round: R96, puzzle: Exclusion NG 3) | 18.1 | 20.2 | apparent KD of MS2 coat protein [4]: 16.4 nM
31 | UUAACGUCAGGAUAUGCAUAAUAUAUUAUAUUAUAAUAUAUACAUGAGGAUCACCCAUGUAGAAGGGACAUUAU [LRO-Excl2-01-Fireball XL5] (Eterna round: R97, puzzle: Exclusion 2) | 42.7 | 29.8 | 
32 | CUAAUGAUAGGAUAUACAGCGAGAGUCGACUCUGGUGCUCAACAUGAGGAUCACCCAUGUAGAAGGAUCAGACC [EX2 C.23] (Eterna round: R97, puzzle: Exclusion 2) | 35.9 | 18.6 | 
33 | GUGCAACAUGAGGAUCACCCAUGUUAGGAUAUGUCCUUGGAGACGCACUAGCUCUGAGACAGAAGGGACAGAGG [Eternabot (Original) Solution 34] (Eterna round: R97, puzzle: Exclusion 1) | 69.9 | 51.2 | 
34 | UUUUACGUAGGAUAUACAUUUUUUUUAUUAUUUUCAUUAUUACAUGAGGAUCACCCAUGUAGAAGGACGAUUUU [My Design] (puzzle: Exclusion 2) |  |  | apparent KD of MS2 coat protein [2]: 25 nM
35 | GUGUAACUACACGGGCUCAACAUGAGGAUCACCCAUGUCAUACACGCAAGCUUUUUGCUUGUCUUAUCUGUCCGUGA [Raenzama] (puzzle: Sensor v3, turn-off variant 1) |  |  | apparent KD of MS2 coat protein [1]: 12.1 nM; apparent KD of MS2 coat protein [2]: 13.5 nM; apparent KD of MS2 coat protein [3]: 10.4 nM
